The labels stand for the following.
B1: Twister Ribozyme (parent)
chain: AACACUGCCAAUGCCGGUCCCAAGCCCGGAUAAAAGUGGAGGGGGCGG

Variants of B1 are the subject of the data set. Kind of data set: self-cleavage, relative activity (ratio to wild type); higher = more cleavage; co-transcriptional.
As to A10C G42A, the self-cleavage came out at 0.31.

As to G42A C46U, the self-cleavage is 0.349. A4C A30C: the self-cleavage amounted to 0.0841. Turning to C8U C15A, the self-cleavage turned out to be 0.318. As to C3G A10U, the self-cleavage was 0.648.

As for A30C G38A, the self-cleavage was found to be 0.649. The figure for G7U G38C is 0.0818; for U12G C27U it is 0.496. The figure for G17A G45C is 0.278; for A11U A30G it is 1.11; for G24U G42C it is 0.0781. The figure for C15G A35U is 0.0985; for G16C A35C it is 0.394; for C8A U18C it is 0.0479. Regarding U6G U18C, the self-cleavage stood at 0.131. The figure for A11G G45U is 0.567. In the case of C20G A30G it was 0.233; in that of A11C G41U, 0.42. As to G16A U31A, the self-cleavage worked out at 0.958.

With U6A G13C, the self-cleavage came to 0.072. The figure for G7C G13C is 0.0439; for G13A G38U it is 0.463; for U6C C25G it is 0.0594. For the variant C20G C46U, the self-cleavage amounted to 0.119. On to A10C G38A, for which the self-cleavage came to 0.947. The figure for C8A G47C is 0.169; for G7U A34C it is 0.0467; for U6A G41U it is 0.204. In the case of C9A G41C it was 0.123; in that of C15A A30G, 0.492; in that of C5A G47C, 0.199. Regarding U31A A33C, the self-cleavage was determined as 0.833. In the case of U31C G45C it was 0.593; in that of G7C A10C, 0.0829. The figure for A4C G42A is 0.0686; for A22U G39U it is 0.0706.

U31G G47U: the self-cleavage was 0.92. In the case of C5G C46U it was 0.77; in that of A10G A34U, 0.959. A35U G45A: the self-cleavage is 1.02.

On to C15A C26G, for which the self-cleavage is 0.108. The figure for C14U C46U is 1.01; for C19U G24C it is 0.126. C3A C25U: the self-cleavage was determined as 0.16. Consider A32C A33C, for which the self-cleavage stood at 0.767. In the case of U6G A32U it was 0.405. The figure for C15U A30G is 0.759; for A1U U37C it is 0.0822. The figure for A34C G43A is 0.13; for A1G U18A it is 0.509. For the variant A30U A33G, the self-cleavage is 1.03.

A4G G41A: the self-cleavage amounted to 0.244. In the case of A4G G41C it was 0.181. With G36A G39C, the self-cleavage was found to be 0.115. As for C25A G29U, the self-cleavage was found to be 0.24. For C25A G29A, the self-cleavage stood at 0.308. The figure for C21U G42C is 0.118; for G29C G48C it is 0.688. The figure for G7A A23U is 0.12; for A23G G44C it is 0.508. Turning to C21U G47U, the self-cleavage turned out to be 0.109. As to C26A G47U, the self-cleavage is 0.144. The figure for C21A U37A is 0.105; for C19A C20U it is 0.0818; for C26U G41A it is 0.109. Consider A22C G45A, for which the self-cleavage was determined as 0.927. With C5G A22G, the self-cleavage was 0.137. In the case of U37C, the self-cleavage amounted to 0.738. On to G28U G45A, for which the self-cleavage was determined as 0.637.

Consider A2G C14U, for which the self-cleavage was found to be 0.275. In the case of A22G U37A it was 0.152. In the case of A1G A4G it was 0.237; in that of C8G G29C, 0.077.

Consider C3U A10G, for which the self-cleavage is 0.474. In the case of U12G G47A it was 0.772; in that of C3A A4G, 0.102; in that of C3G A33G, 0.483.

G39C G48U: the self-cleavage was determined as 0.198.

With U12A A23U, the self-cleavage stood at 0.767. In the case of A32U G45U it was 0.819; in that of C15G G41U, 0.0559.

C3U C46G: the self-cleavage worked out at 0.526. The figure for A11C U37G is 0.742; for A23U C27A it is 0.0759. The figure for G44C G48U is 0.225. The figure for A10C C25U is 0.782. As to U18C C19G, the self-cleavage turned out to be 0.0747. The figure for C20A G39A is 0.114; for G24A A34G it is 0.0576.

Take A22C G42C: the self-cleavage turned out to be 0.237. The figure for A4G C46U is 0.775; for G29A A35U it is 0.887. In the case of G29A A35C it was 0.762. The figure for U37C G47A is 0.478; for U12G A40G it is 0.163. Turning to G13A G47U, the self-cleavage amounted to 0.446. The figure for A23C C27A is 0.0984; for G7U G45A it is 0.0748. In the case of C3U G29C it was 0.277; in that of G16C G43A, 0.148.

For the variant G28A G36U, the self-cleavage was determined as 0.15. The figure for A4G G48C is 1.18; for C15G G44U it is 0.075.

On to A23U G41U, for which the self-cleavage was determined as 0.137. The figure for U6C C26A is 0.0404; for A4U C25U it is 0.0507; for A2U C14G it is 0.0946. The figure for G13U G39U is 0.0998.

Turning to C3U A22U, the self-cleavage stood at 0.255. The figure for G38A G39A is 0.4; for A10C G47U it is 0.741. As for A1U C5A, the self-cleavage is 0.0587. In the case of C9A C15A it was 0.35; in that of A1C G29A, 0.184; in that of C20G A23U, 0.121.

Turning to G29C G38C, the self-cleavage is 0.736.

For the variant A10G U18A, the self-cleavage came out at 0.841. The figure for G29A U37C is 0.444. The figure for U31C G43U is 0.537; for C21A C25A it is 0.101. With C25U G43A, the self-cleavage is 0.151. The figure for C5U C26G is 0.0996; for C5U G39A it is 0.167; for G24U A33U it is 0.121. In the case of A2U G13C it was 0.0514.

Consider A22C C46U, for which the self-cleavage worked out at 0.832. The figure for A10G A22U is 0.971; for C9G G13U it is 0.933.

As for C15G C26U, the self-cleavage was 0.0429. In the case of G42C G47U it was 0.491. In the case of C3G C25G it was 0.109; in that of A2U U37G, 0.214; in that of C21U G38A, 0.0657. In the case of G7A G44U it was 0.422. A40G G43U: the self-cleavage stood at 0.136. In the case of U37G G38U it was 0.127. The figure for U37G G38A is 0.774. The figure for C5U G16C is 0.159. Regarding A2G G16A, the self-cleavage amounted to 0.208.

Consider A2U G43U, for which the self-cleavage stood at 0.139. The figure for A35G G36A is 0.718; for C8G C25G it is 0.0929; for G17U C19A it is 0.0777. In the case of U12G G48A it was 0.593; in that of A33U G38U, 0.815; in that of G43C C46G, 0.174. The figure for C25G U31G is 0.393; for C5G A23G it is 0.133. In the case of C21G G42A, the self-cleavage worked out at 0.0891.

Turning to C9G G39C, the self-cleavage was 0.132. In the case of A1C A22G it was 0.149. As for U37A A40U, the self-cleavage worked out at 0.137. The figure for A1G G7A is 0.216; for G45U C46A it is 0.595.

On to A2G C21A, for which the self-cleavage turned out to be 0.0688. With A32G G47U, the self-cleavage is 0.893. As to C25G C46A, the self-cleavage amounted to 0.148. In the case of A2C G16A it was 0.116. The figure for U18G G45C is 0.0995; for G39C G43U it is 0.112. Consider U31G A33G, for which the self-cleavage was 1.02. C9A C19A: the self-cleavage was determined as 0.089. With G13C A22G, the self-cleavage came to 0.103. C14U C21U: the self-cleavage was 0.141. The figure for U18A C25G is 0.0662; for C26U G42A it is 0.13; for A23U A30U it is 0.501.

For the origin of these results see the RNAGym collection of RNA variant scans (doi:10.7554/elife.80360).
